Tests used:
[1] = tested on: tobacco BY-2 cells; experiment: CBD-induced cell death of tobacco BY-2 cells (FDA fluorescence); format: cell-based; settings: 0.5 mM CBD
Source text: (§1) For tobacco, the ABC and PTR Transporter genes were cloned into a plant binary expression vector (pGreen 0029) via Agrobacterium mediated transformation as previously described [Cohen, S. et at, Nat. Commun. (2014) 5:4026]. These genes were cloned between the cauliflower mosaic virus (CaMl,) 35S promoter and the polyadenylation signal from the nopaline synthase gene and inserted into tobacco BY2 cells and plants (var. Samson) via stable transformation..
The toxic effect and cell death activity of terpenes and cannabinoids in tobacco was assessed on cell cultures as follows: 7-day-old suspension cultured BY-2 tobacco cells at a 5-fold dilution in logarithmic growth phase, incubated in Gamborg B5 medium, was incubated in the presence of 0.5 mM CBD for 48 hours as previously described [Sirikantaramas S. et al., Plant Cell Physiol. (2005) 46:1578-1582].
Cell death in the samples was evaluated using the cell viability indicator fluorescein diacetate (FDA, Sigma-Aldrich). Cell suspension (2.5 mL) was stained with 50 μL of 0.5% fluorescein diacetate (FDA) dissolved in acetone for 10 min. The cells were rinsed three times with I mL isotonic medium to remove excess staining solution. Viability was assessed immediately using an Olympus BX50 fluorescence microscope equipped with a suitable barrier filter (excitation 460-490 nm and emission 510 nm). FDA staining of viable cells results in bright green fluorescence, while nonviable cells remain colorless.

[2] = tested on: yeast cells; experiment: Yeast growth (turbidity A600) in the presence of CBD; format: cell-based, Saccharomyces cerevisiae (strain Y1HGold); settings: 0.5 mM CBD; for inhibition of yeast growth in response to CBD, transporter-expressing yeast vs control yeast: 7-12 hours
Method: (§2) The genes were expressed in yeast and tobacco. For yeast, the ABC and PTR Transporter genes were synthesized by the TWIST Co, cloned and expressed (individually) in the yeast expression vector pESC-URA (Agilent Technologies) for expression under the yeast native gal-10 promoter. Competent Saccharomyces cerevisiae (strain Y1HGold, CloneTech) cells were prepared, transformed by each of the resulting vector and selected on yeast synthetic media lacking Uracil as previously described [GietzR. D., Methods Mol. Biol. (2014) 1205:1-12].
An alternative method is to measure the yeast growth as a function of turbidity. Transformed yeast cells were grown on URA-glucose broth at 30° C. at 200 RPM, and after 24 hours 100 μl was used to inoculate 5 ml of URA-galactose broth in the same conditions till O.D.600 of 1.5. The yeast was further diluted to OD600=0.05 with 10 ml URA-galactose, and divided into two 5 ml aliquots into separate 50 ml falcon tubes. The first falcon (control) was added 78 μl acetonitrile (the solvent that the CBD was dissolved in), and the second one was added 78 μl CBD solution in acetonitrile (final CBD concentration=0.5 mM). […]

[3] = tested on: tobacco BY-2 cells; experiment: Uptake of CBD into tobacco BY-2 cells; format: cell-based; settings: 0.5 mM CBD
Source text: as §1
[…] The pellet was weighed and underwent HPLC analysis to determine the pellet CBD content, as indicated above.

[4] = tested on: yeast cells; experiment: Uptake of CBD into yeast cells; format: cell-based, Saccharomyces cerevisiae (strain Y1HGold); settings: 0.5 mM CBD; for net uptake of CBD into yeast cells compared to control (empty vector) yeast: three hour incubation, FIG. 3A and FIG. 4
Method: as §2
An additional strategy for determining transporter function is to measure the amount of exogenous CBD taken up and incorporated into the cells.
Transformed yeast cells were grown on URA-glucose broth at 30° C. at 200 RPM, and after 24 hours 100 μl was used to inoculate 5 ml of URA-galactose broth in the same conditions till OD600 of […]. The yeast was incubated with 0.5 mM CBD for 2-8 hours in 30° C. at 100 RPM, then centrifuged at 15000 g for 1 minute, and washed twice with 1 ml distilled water. The pellet was weighed and underwent HPLC analysis to determine the pellet's CBD content. The pellet was extracted in 1 ml methanol, and following centrifugation and filter was analyzed by HPLC using a diode-array detector and CBD was quantified against a commercial standard.

Molecule: C=C(C)[C@@H]1CCC(C)=C[C@H]1c1c(O)cc(CCCCC)cc1O [CBD, Cannabidiol, reference compound]
- fluorescence (FDA viability) of control BY2 cells in the presence of CBD ([1]; control BY2 cells, FIG. 6A top): small decrease
- growth with CBD as % of growth without CBD ([2]; control (empty vector) yeast, 7-12 hours after initiation, FIG. 2): 42%

B1: T-AG0100-1: Cannabis PTR/NRT transporter gene product, amino acid SEQ ID NO: 53 (protein)
chain: MNMEVMSRDFDQSGGGKRGGNRAAFFVYIMEGLESMAFISNSASLVIYFFSYMNYSLTKSSTMLTNLLGTATLLSLLGGFISDTYLTRFATTLIFASIELMGYIVLLVQAHRSDLRPPKCLSITHQCEGASAGEAAILYTGLYLMALGTGGVKAALPALGADQFDPKKAKQLSTYFNWFIFSLTIGSILGVTLVVWISTDKGWDWAFAVCAIALLLSIFFISLGNPFYRNNLPKGSPLLRFLRVFVASFRNRKLPIPENADELHEIYQDKEDDNLHHEILQRTDQFKFLDRAAVIRRTEDDDNDGSNSGSEWRVCTVTEVEETKILIRMLPIILTTIFMNTCLAQLQTFSVQQSVTMDRDFIGFEIPGPSVPAIPLLFMFILIPLYDRVFVPIARRVTGIPTGISHLQRIGIGLVLSAISMTVAGFVEKKRRNVAIQHDMVDSQDALPISVFWLGYQYAIFGAADMFTLVGMLEFFYAESSAGMKALSTAISWCSLAFGYYLSSVVVEIVNKVSGGWLANNNLNRDKLENFYWLLAGLSVVNFGVYVMCASWYKYKNVEMIKKDDAST
modifications: ABC+PTR Transporter amino acid sequence (of the 12 identified gene products)
- effect on the uptake of CBD in tobacco BY-2 cells ([3]; 4 hour uptake, FIG. 5): strong effect
- net uptake of CBD into yeast cells compared to control (empty vector) yeast [4]: reduced net uptake of CBD
- fluorescence (FDA viability) of transporter-expressing BY2 cells in the presence of CBD ([1]; FIG. 6A bottom): strong decrease
- cell death in response to CBD of BY-2 cells expressing the transporter ([1]; FIGS. 6A-B): increased cell death
- inhibition of yeast growth in response to CBD, transporter-expressing yeast vs control yeast ([2]; FIG. 2): reduced inhibition of growth
- growth inhibition by CBD, time course of yeast growth vs empty vector yeast ([2]; 12 hour period, FIGS. 1A-B): reduced growth inhibition

B2: T-790-1: Cannabis ABC-B transporter gene product, amino acid SEQ ID NO: 46 (protein)
chain: MDNKTNKHRGGNGDGDDNEDQDQEDTKKNNNNNNSNKVSLLKLFSFADFYDYVLMGIGTIGAIIHGASVPIFFIFFGKLINVIGMAYLFPKEASHKVAKYSLDFVYLSIAILFSSWTEVACWMHTGERQAAKMRMAYLRAMLSQDISLFDTEASTGEVISAITSDIIVVQDALSEKVGNFLHYISRFVVGFIVGFARVWQISLVTLSIVPLIALAGGVYAYIATGLIARVRKSYVKAGEIAEEVIGNVRTVQAFAGEEKAVKMYTSALAHTYMYGRKAGLAKGLGLGFMHCTLFLSWSLLVWYVSIVVHKSIANGGESFTTMLNVVIAGLSLGQAALDISAFVRAKAAAYPIFAMIERNTASKSSAMSGRKLGKLEGHIQFNNVTFSYPSRPDVTIFNKLSLDIPSGKIVALVGGSGSGKSTVISLIERFYEPLSGEILLDGNNIKELDLKWMRQQIGLVNQEPALFATSIRENILYGKDEASLDEITRAAKLSEAISFINNLPERFETQVGERGIQLSGGQKQRIAISRAIVKNPSILLLDEATSALDAESEKSVQEALDRVMVGRTTVVVAHRLSTIRNADIIAVVQEGKIVETGCHDELISNPNSVYSSLVQLQEAAPLQRNSSLGRPPSIKFSRELSRTTTSFGASFRSDKDSISRVGADGGAVEPVKTTNVSAKRLYSMIGPDWLYGLCGTICAFIAGAQMPLFALGISHALVSYYMDWDTTKHEVKKISILFCCGAVVTVIVHGIEHLCFGTMGERLTLRVRERMFSAMLRNEIAWFDDTNNTSSMLSSRLESDATLLRTIVVDRSTILLQNVGLVVASFIIAFLLNWRITLVVLATYPLVISGHISEKLFMQGYGGNLSKAYLKANMLAGEAVSNIRTVAAFCAEQKVLDLYARELVEPSKRSFTRGQIAGIFYGISQFFIFSSYGLALWYGSVLMGKELSSFKSVMKSFMVLIVTALAMGETLALAPDLLKGNQMVASVFEVLDRKTEVSGDSGEELASVDGTIELRDIHFSYPSRPDVVIFKDFNLKVRSGKSMALVGQSGSGKSSVISIILRFYDPTSGKVLIDGKDMKKLKLKSLRKHIGLVQQEPALFATSIYENILYGKEGASESEVIEAAKLANAHSFISALPEGYSTKVGERGVQLSGGQRQRVAIARAVLKNPEILLLDEATSALDVESERVVQQALDRLMKNRTTIMVAHRLSTIKNADQISVIQDGKIIEQGTHSTLIDNTNGPYYKLINIQQQQQQQL
modifications: ABC+PTR Transporter amino acid sequence (of the 12 identified gene products)
- effect on the uptake of CBD in tobacco BY-2 cells ([3]; 5 hour uptake, FIG. 7): strong effect
- net uptake of CBD into yeast cells compared to control (empty vector) yeast [4]: reduced net uptake of CBD
- inhibition of yeast growth in response to CBD, transporter-expressing yeast vs control yeast ([2]; FIG. 2): reduced inhibition of growth

B3: T-792-1: Cannabis ABC-G transporter gene product, amino acid SEQ ID NO: 47 (protein)
chain: MASVTPSTTIDQEHYHNKKVTISRTTSTTSSNNNTNHGNPRITVVEIETANNRNASYRSSIFGADHEVSLPVVEDHQGVFLTWQDLWVTVSSGKNSNRPILRGLTGYAKPGELLAIMGPSGCGKSTLLDALAGRLNANTRQSGDILINGNKQTLAYGTSAYVTQEDTLLTTLTVREAVHYSAQLQLPDSMSSAEKKERAEMTIREMGLTDAVNTRIGGSGLGTGSKGLSGGQKRRVSICIEILTRPKLLFLDEPTSGLDSAASYYVMSSIASLDIQSRRGGGAGGRRTVVASIHQPSSEVFQLFNTLCLLSAGKIVYFGPASAANEFFTMSGFPCPSLQNPSDHFLKTINKDFDKVQKDLEQGLPIRGRPTVEEAIETLVKSYKASENCQLVQQQVSQICNKKNKSVGLMEKKRSHAGFISQCGVLTRRSFKNMYRDLGYYWFRLVIYIGLAIGLGTIFCNIGHSDGSVEARASLIMYVASFLTFMTIGGFPSFVEDMKVFGRERLNGHYSVTSFVMGNTISAQPYLVLIALIPGALAYFPPGLRGGFEHFIYFVLVLYACMMLVESLMMIVAALVPNFLLGIITGAGIQGFMMLAGGFFRLPNDLPDPFWRYPVFYISFHRYAFQGLYKNEFKGLMFVDEILGKSHKISGDEILRNKYQVNMSYSKWVDFVLLLSMVFAYRVMFLLILKISENYKTISAAFAFGRRKPSTQVMENPTATPPHA
modifications: ABC+PTR Transporter amino acid sequence (of the 12 identified gene products)
- CBD levels in yeast cells compared to the control ([4]; 5 hour period, FIG. 3B): increase in CBD levels
- inhibition of yeast growth in response to CBD, transporter-expressing yeast vs control yeast ([2]; FIG. 2): reduced inhibition of growth
